Consider 5 molecules from patent US12729239B2, “Anti-CEACAM5 antibodies and conjugates and uses thereof” (Merck Patent GmbH, priority 2020, dated 2026).

For data set [1] the following is noted: in vivo; cited from earlier work.
Data set [2] relates to CEACAM5 from Macaca fascicularis. Conditions: cited from earlier work.
A further data set concerns MDA-MB-231. Description: Viability assay (Cell Titer-Glo), MDA-MB-231. In kind it is cell-based. Conditions: Homo sapiens, read-out: Maximal effect compared to untreated controls at the highest tested concentration. A general note: ATP-based viability assays read luminescence as a measure of living cells.
The conditions of data set [3]: in vivo; cited from earlier work. This is another data set of the same source.
The target in data set [4] is T1, CEACAM-5 epitope in FFPE tissues/cells (Homo sapiens, UniProt P06731).
T1 construct: formaldehyde fixed paraffin embedded (FFPE) cancer cell line microarrays (CMAs) and human tumor tissues; endogenous in cells; host or cells: 104 FFPE cancer cell lines (microarray)
T1 sequence (P06731 35-676): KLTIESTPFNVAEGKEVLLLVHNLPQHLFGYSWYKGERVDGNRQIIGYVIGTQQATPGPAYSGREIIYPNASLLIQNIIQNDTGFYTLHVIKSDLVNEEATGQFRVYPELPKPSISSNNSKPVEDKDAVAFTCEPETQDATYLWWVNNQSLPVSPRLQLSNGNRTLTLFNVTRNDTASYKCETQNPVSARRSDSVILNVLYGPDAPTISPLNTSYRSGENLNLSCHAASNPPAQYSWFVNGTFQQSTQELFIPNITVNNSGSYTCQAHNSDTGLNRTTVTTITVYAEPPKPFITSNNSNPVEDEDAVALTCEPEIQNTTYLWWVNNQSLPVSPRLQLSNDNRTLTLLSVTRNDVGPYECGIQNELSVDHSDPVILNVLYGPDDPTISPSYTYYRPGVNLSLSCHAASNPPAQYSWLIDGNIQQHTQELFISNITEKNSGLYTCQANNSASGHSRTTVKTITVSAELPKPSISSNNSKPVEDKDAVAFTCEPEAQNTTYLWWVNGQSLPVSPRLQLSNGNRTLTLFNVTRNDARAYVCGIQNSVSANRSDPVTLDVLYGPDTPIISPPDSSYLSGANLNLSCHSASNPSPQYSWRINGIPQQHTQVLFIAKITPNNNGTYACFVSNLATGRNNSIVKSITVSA
Description: IHC staining on FFPE cancer cell lines versus CEACAM5 mRNA expression. In kind it is binding. The settings on record: 104 cancer cell lines, CCLE dataset. As for the experimental part:
For the IHC staining with the anti-CEACAM-5 antibody rb8G4, sections of 4 μm from formaldehyde fixed paraffin embedded (FFPE) cancer cell line microarrays (CMAs) and human tumor tissues were mounted on charged slides (SuperFrost Ultra Plus, Thermo Fisher Scientific or TOMO, Matsunami). The staining procedure was performed using a Discovery XT (Roche Diagnostics) staining platform. Following deparaffinization, the sections were heated for epitope retrieval in Tris-EDTA buffer pH 8 (CC1, Roche Diagnostics). The sections were incubated with the primary monoclonal antibody rb8G4 diluted to 0.5 or 0.7 μg/ml in phosphate-buffered saline (PBS) or antibody diluent buffer (DCS). The clone DA1E (rabbit monoclonal IgG, NEB) served as isotype control antibody. The primary antibodies were followed by the HQ anti-rabbit IgG detection kit (Roche Diagnostics). […]
CMAs and the TMA with human organ tissue were stained and scanned with the NanoZoomer (Hamamatsu) with a resolution of 0.46 μm/pixel. […] The scans of the CMAs were analyzed with the image analysis software HALO (Indica Labs, USA). For the determination of the amount of antigen present, positive brown stained area was calculated as percent area of the viable tissue area. Staining (arbitrary units) is calculated as Antibody staining (AU)=% positive tissue area*Average optic density (OD ranges from 0 to 1) of the brown colour. […]

Sequence of CEACAM5 from Macaca fascicularis (as listed by the source): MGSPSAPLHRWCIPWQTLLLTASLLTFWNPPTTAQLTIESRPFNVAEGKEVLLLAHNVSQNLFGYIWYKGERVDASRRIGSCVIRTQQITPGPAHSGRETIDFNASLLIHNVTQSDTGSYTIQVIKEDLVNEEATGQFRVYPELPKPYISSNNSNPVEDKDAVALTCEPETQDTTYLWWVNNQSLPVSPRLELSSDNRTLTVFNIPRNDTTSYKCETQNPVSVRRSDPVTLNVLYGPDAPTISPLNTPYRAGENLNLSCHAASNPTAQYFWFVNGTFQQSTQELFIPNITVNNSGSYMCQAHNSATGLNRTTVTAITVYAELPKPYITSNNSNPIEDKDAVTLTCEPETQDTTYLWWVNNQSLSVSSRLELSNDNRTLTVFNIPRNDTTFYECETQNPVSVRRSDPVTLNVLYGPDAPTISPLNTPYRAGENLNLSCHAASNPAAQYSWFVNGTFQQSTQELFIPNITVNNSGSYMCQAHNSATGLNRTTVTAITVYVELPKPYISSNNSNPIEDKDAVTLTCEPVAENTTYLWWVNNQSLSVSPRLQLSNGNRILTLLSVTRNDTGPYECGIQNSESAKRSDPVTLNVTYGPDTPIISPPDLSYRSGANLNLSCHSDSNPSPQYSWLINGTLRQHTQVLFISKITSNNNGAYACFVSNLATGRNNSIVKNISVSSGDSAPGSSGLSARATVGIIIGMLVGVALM
Description for MDA-MB-231: Cytotoxicity effects of the ADC on the cancer cell lines were measured by cell viability assays. Cells were seeded in a volume of 90 μL in 96-well plates the day before treatment. Test compounds (ADCs or free payloads) were formulated at 10-fold the starting concentration in cell culture medium. Test compounds were serial diluted (1:4) and 10 μL of each dilution was added to the cells in triplicates. Plates were cultured at 37° C. in a CO2 incubator for six days. For cell viability measurement, Cell Titer-Glo® reagent (Promega™ Corp, Madison, WI) was added to each well, and plates processed according to the manufacturer's instructions. Luminescence signals were measured using a Varioskan plate reader (Thermo Fisher). Luminescence readings were converted to % viability relative to untreated cells. Data was fitted with non-linear regression analysis, using log (inhibitor) vs. response, variable slope, 4-parameter fit equation using GraphPad Prism. Data is shown as % relative cell viability vs. molar compound concentration, error bars indicating standard deviation (SD) of triplicates. Geometric mean values of IC50s derived from multiple experiments were calculated.

Take Labetuzumab govitecan: the “stability of the linker structure” value in data set [1] is on record as “significant instability”.

Consider “hmn-14: known anti-CEACAM5 antibody as in labetuzumab govitecan; HC SEQ ID NO: 27, LC SEQ ID NO: 28”, for which the “cross-reactivity with CEACAM5 from Macaca fascicularis” value in data set [2] was “not cross-reacting”. Consider `CC[C@@]1(O)C(=O)OCc2c1cc1n(c2=O)Cc2c-1nc1cc(F)c(C)c3c1c2[C@@H](N)CC3` [PAYLOAD, (1S,9S)-1-Amino-9-ethyl-5-fluoro-1,2,3,9,12,15-hexahydro-9-hydroxy-4-methyl-10H,13H-benzo(de)pyrano(3′,4′:6,7)indolizino(1,2-b)quinoline-10,13-dione], for which the Emax in the data set with MDA-MB-231 is -92%. In the case of “SAR408701: Sanofi anti-CEACAM5 ADC: SAR408377 linked to DM4 via SPDB linker”, the side effects entry in data set [3] was “toxic side effects on several organs and tissues including the cornea of the eye”.

B1: rb8G4: human/rabbit chimeric variant of mAb1; HC SEQ ID NO: 29, LC SEQ ID NO: 30 (antibody)
heavy: EVQLQESGPGLVKPSQTLSLTCTVSDGSVSRGGYYLTWIRQHPGKGLEWIGYIYYSGSTYFNPSLRSRVTMSVDTSKNQFSLKLSSVTAADTAVYYCARGIAVAPFDYWGQGTLVTVSSQPKAPSVFPLAPCCGDTPSSTVTLGCLVKGYLPEPVTVTWNSGTLTNGVRTFPSVRQSSGLYSLSSVVSVTSSSQPVTCNVAHPATNTKVDKTVAPSTCSKPTCPPPELLGGPSVFIFPPKPKDTLMISRTPEVTCVVVDVSEDDPEVQFTWYINNEQVRTARPPLREQQFNSTIRVVSTLPIAHEDWLRGKEFKCKVHNKALPAPIEKTISKARGQPLEPKVYTMGPPREELSSRSVSLTCMINGFYPSDISVEWEKNGKAEDNYKTTPAVLDSDGSYFLYSKLSVPTSEWQRGDVFTCSVMHEALHNHYTQKSISRSPGK
light: EIVLTQSPATLSVSPGERATLSCRTSQSVRSNLAWYQQKPGQAPRLLIYAASTRATGIPARFSGSGSGTEFTLTISSLQSEDFAVYYCQQYTNWPFTFGPGTKVDIKRDPVAPSVLLFPPSKEELTTGTATIVCVANKFYPSDITVTWKVDGTTQQSGIENSKTPQSPEDNTYSLSSTLSLTSAQYNSHSVYTCEVVQGSASPIVQSFNRGDC
modifications: HC of rb8G4; LC of rb8G4
For B1, the “Pearson correlation coefficient of IHC staining signal with mRNA expression” value in data set [4] came out at 0.88.
